# Measurements published in the supplement of paper PMC9112550, “Optimization of the antimicrobial peptide Bac7 by deep mutational scanning” (BMC Biology, 2022).
# System: Escherichia coli TOP10
# Assay: shrunken log2 fold change of peptide-encoding DNA abundance (4.5 h post-induction vs induction); higher = less antimicrobial activity (less host growth inhibition)
# Settings: time post-induction: 4.5 h; library: site-saturation at positions 5, 18, 19, 20
# 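Further: peptides expressed intracellularly from a pBAD plasmid library in pooled LB shake-flask culture, induced with 0.3% L-arabinose, DNA abundance read by NGS, three biological replicates, DESeq2 with apeglm shrinkage.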
row,Sequence,shrunken log2 fold change
1,RRIRSRPPRLPRPRPRPVFRPRP,-0.113
2,RRIRNRPPRLPRPRPRPAMPPRP,0.236
3,RRIRGRPPRLPRPRPRPHFFPRP,0.328
4,RRIRMRPPRLPRPRPRPCEQPRP,0.195
5,RRIRWRPPRLPRPRPRPANGPRP,-0.186
6,RRIRPRPPRLPRPRPRPCGLPRP,0.148
7,RRIRNRPPRLPRPRPRPHNCPRP,-0.0167
8,RRIRMRPPRLPRPRPRPFIQPRP,0.0137
9,RRIRHRPPRLPRPRPRPCKQPRP,-0.0199
10,RRIRPRPPRLPRPRPRPEMMPRP,0.00381
11,RRIRIRPPRLPRPRPRPKITPRP,-0.83
12,RRIRKRPPRLPRPRPRPCPGPRP,-0.251
13,RRIRWRPPRLPRPRPRPIDRPRP,-0.156
14,RRIRHRPPRLPRPRPRPKVKPRP,0.235
15,RRIRQRPPRLPRPRPRPWHFPRP,-0.0375
16,RRIRNRPPRLPRPRPRPQAAPRP,-0.0424
17,RRIRSRPPRLPRPRPRPTEDPRP,0.14
18,RRIRQRPPRLPRPRPRPPHSPRP,0.511
19,RRIRQRPPRLPRPRPRPNFWPRP,-0.00668
20,RRIRCRPPRLPRPRPRPIIKPRP,-1.01
21,RRIRPRPPRLPRPRPRPICGPRP,0.103
22,RRIRKRPPRLPRPRPRPGNIPRP,-0.0196
23,RRIRYRPPRLPRPRPRPIQVPRP,-0.0153
24,RRIRRRPPRLPRPRPRPYNNPRP,-0.76
25,RRIRKRPPRLPRPRPRPEGYPRP,0.0317

row,Sequence,shrunken log2 fold change
1,RRIRIRPPRLPRPRPRPSIQPRP,-0.252
2,RRIRQRPPRLPRPRPRPNHGPRP,-0.00507
3,RRIRGRPPRLPRPRPRPCACPRP,0.225
4,RRIRWRPPRLPRPRPRPSDKPRP,-0.246
5,RRIRYRPPRLPRPRPRPWLDPRP,-0.225
6,RRIRERPPRLPRPRPRPCRYPRP,-0.00318
7,RRIRTRPPRLPRPRPRPPQWPRP,0.274
8,RRIRVRPPRLPRPRPRPNSQPRP,-0.131
9,RRIRIRPPRLPRPRPRPCCAPRP,-0.172
10,RRIRARPPRLPRPRPRPCHGPRP,-0.214
11,RRIRDRPPRLPRPRPRPWNMPRP,-0.508
12,RRIRKRPPRLPRPRPRPPPHPRP,0.781
13,RRIRKRPPRLPRPRPRPEPSPRP,0.956
14,RRIRPRPPRLPRPRPRPWHDPRP,-0.112
15,RRIRQRPPRLPRPRPRPDPPPRP,0.316
16,RRIRKRPPRLPRPRPRPMWYPRP,0.0551
17,RRIRARPPRLPRPRPRPRAIPRP,0.358
18,RRIRYRPPRLPRPRPRPVCHPRP,-0.583
19,RRIRGRPPRLPRPRPRPYMEPRP,-0.164
20,RRIRHRPPRLPRPRPRPLLKPRP,-0.013
21,RRIRSRPPRLPRPRPRPTGYPRP,0.0189
22,RRIRPRPPRLPRPRPRPMNVPRP,-0.0376
23,RRIRARPPRLPRPRPRPPYQPRP,0.171
24,RRIRFRPPRLPRPRPRPPSTPRP,0.342
25,RRIRMRPPRLPRPRPRPGMWPRP,0.292

row,Sequence,shrunken log2 fold change
1,RRIRMRPPRLPRPRPRPHMEPRP,-0.0461
2,RRIRWRPPRLPRPRPRPQIDPRP,-0.688
3,RRIRDRPPRLPRPRPRPTAGPRP,0.534
4,RRIRSRPPRLPRPRPRPTYMPRP,-0.55
5,RRIRLRPPRLPRPRPRPDYHPRP,-0.576
6,RRIRHRPPRLPRPRPRPSCNPRP,-0.599
7,RRIRARPPRLPRPRPRPTGAPRP,0.906
8,RRIRPRPPRLPRPRPRPEYMPRP,-0.193
9,RRIRGRPPRLPRPRPRPGLKPRP,0.725
10,RRIRQRPPRLPRPRPRPVFHPRP,-0.107
11,RRIRHRPPRLPRPRPRPPTWPRP,0.0706
12,RRIRERPPRLPRPRPRPYCAPRP,-0.533
13,RRIRARPPRLPRPRPRPEATPRP,1.65
14,RRIRRRPPRLPRPRPRPDFQPRP,-0.135
15,RRIRVRPPRLPRPRPRPAELPRP,0.175
16,RRIRGRPPRLPRPRPRPKLNPRP,0.69
17,RRIRPRPPRLPRPRPRPGTWPRP,0.0893
18,RRIRNRPPRLPRPRPRPPYQPRP,-0.22
19,RRIRTRPPRLPRPRPRPCPMPRP,0.00574
20,RRIRVRPPRLPRPRPRPDVDPRP,-0.367
21,RRIRRRPPRLPRPRPRPDTKPRP,-0.139
22,RRIRHRPPRLPRPRPRPCCDPRP,-0.228
23,RRIRIRPPRLPRPRPRPWKPPRP,-0.093
24,RRIRCRPPRLPRPRPRPSWKPRP,-0.0761
25,RRIRFRPPRLPRPRPRPARPPRP,0.287
